Residue numbers refer to the chain shown, from its start.
T1: Full length MAGEA4 M161D (human, UniProt P43358 1-317, M161D)
T1 sequence: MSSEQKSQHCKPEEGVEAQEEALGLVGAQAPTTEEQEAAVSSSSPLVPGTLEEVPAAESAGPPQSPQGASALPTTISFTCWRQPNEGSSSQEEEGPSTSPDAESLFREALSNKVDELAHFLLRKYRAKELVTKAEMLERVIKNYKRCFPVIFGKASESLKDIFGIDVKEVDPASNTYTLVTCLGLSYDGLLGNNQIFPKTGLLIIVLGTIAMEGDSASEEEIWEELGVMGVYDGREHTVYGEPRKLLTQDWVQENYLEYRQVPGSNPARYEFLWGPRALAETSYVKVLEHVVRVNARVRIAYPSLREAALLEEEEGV

B1: Full length MAGEA4 WT (N-terminal histidine tag) (natural protein)
chain: T1 sequence with D161M

What was measured:
[1] = target: His-tagged full length (FL) wildtype (WT) RAD18 (human, UniProt Q9NS91 1-495); assay: cross-linking
Full length MAGEA4 M161D = target: T1, Full length MAGEA4 M161D; assay: ITC
[2] = target: B1; assay: ITC

Sequence of His-tagged full length (FL) wildtype (WT) RAD18 (Q9NS91 whole entry): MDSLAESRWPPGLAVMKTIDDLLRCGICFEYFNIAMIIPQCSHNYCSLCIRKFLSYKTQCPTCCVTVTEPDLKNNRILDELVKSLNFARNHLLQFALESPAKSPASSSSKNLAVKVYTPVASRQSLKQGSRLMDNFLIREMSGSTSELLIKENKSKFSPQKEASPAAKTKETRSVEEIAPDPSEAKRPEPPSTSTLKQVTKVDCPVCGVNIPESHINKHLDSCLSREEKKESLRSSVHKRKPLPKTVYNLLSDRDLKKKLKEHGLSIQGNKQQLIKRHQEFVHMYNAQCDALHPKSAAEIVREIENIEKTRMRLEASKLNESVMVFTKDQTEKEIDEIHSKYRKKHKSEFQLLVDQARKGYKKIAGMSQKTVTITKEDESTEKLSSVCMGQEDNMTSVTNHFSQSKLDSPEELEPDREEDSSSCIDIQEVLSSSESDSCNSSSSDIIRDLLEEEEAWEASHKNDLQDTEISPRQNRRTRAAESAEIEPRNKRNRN

| Binder | binding result [1] | Kd (Full length MAGEA4 M161D) [nM] | Kd [2] [nM] |
| --- | --- | --- | --- |
| B1 | binds | – | – |
| SKYRKKHKSEFQLLVDQARKGYKKIAG [RAD18 R6BD peptide (27 amino acid peptide containing amino acids 340-366 of RAD18)] | – | 1660 | 405 |
